Assay results from US20240247080A1, “GLP1/GIP/NPY2 RECEPTOR TRIPLE AGONISTS” (Boehringer Ingelheim International GmbH, priority 2022, published 2024).
Numbering of substitutions follows the chain as printed. Starred links: 1 amine or outer side, 2 acyl side, 3 side chain; linkers in the order of their positions; H or OH if unused. Non-standard residues stand in square brackets, D forms with d. Groups on a side chain read outwards from the residue. No end group written: not given here. *: point of attachment. C20 diacid = O=C(O)CCCCCCCCCCCCCCCCCCC(=O)*; C18 diacid = O=C(O)CCCCCCCCCCCCCCCCC(=O)*; γGlu = O=C(O)[C@H](CCC(=O)[*:2])N[*:1]; εLys = N[C@@H](CCCCN[*:1])C(=O)[*:2]; glu = not defined here; AEEA = NCCOCCOCC(=O)O; Aib = CC(C)(N)C(=O)O

T1: NPY2 receptor (human (printed as hNPY2R), UniProt P49146 1-381)
T1 sequence (looked up): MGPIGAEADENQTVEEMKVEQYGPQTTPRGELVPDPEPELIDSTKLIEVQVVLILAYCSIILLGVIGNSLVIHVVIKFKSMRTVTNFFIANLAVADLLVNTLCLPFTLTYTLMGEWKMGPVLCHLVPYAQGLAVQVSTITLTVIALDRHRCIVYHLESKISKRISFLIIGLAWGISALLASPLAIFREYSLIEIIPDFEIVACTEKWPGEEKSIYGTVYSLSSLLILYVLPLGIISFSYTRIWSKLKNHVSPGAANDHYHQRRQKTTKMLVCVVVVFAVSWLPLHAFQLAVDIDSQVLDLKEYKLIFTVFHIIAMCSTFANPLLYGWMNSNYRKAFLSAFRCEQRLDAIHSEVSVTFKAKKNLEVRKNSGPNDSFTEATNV

T2: GIP receptor (human (printed as hGIPR), UniProt P48546 22-466)
T2 sequence (looked up): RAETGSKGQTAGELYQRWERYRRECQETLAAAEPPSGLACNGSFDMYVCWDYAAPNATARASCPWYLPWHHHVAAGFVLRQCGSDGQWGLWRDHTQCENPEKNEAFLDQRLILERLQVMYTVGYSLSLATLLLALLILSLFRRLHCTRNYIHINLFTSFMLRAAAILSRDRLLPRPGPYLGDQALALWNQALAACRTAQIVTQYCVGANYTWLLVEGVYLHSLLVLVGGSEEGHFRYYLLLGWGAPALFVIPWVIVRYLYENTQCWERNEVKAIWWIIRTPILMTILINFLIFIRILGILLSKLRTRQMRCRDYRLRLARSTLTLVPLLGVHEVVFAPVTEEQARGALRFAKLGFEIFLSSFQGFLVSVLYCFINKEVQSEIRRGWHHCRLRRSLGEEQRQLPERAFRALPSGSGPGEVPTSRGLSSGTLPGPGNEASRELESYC

B1: Compound 176 (peptide)
peptide: YXEGTFTSDYSIXLEKQAQXEFVQWLIKGGPSEGASLRHYYNWLTRQRY
modifications: Aib at 2, 13, 20; K28 side chain carries C18DA-E-E-E-E-E (SEQ ID NO: 636); C-terminal amide
B2: Compound 180 (peptide)
peptide: B1 peptide with E21A, Q24E, E33S, G34P
modifications: Aib at 2, 13, 20; K28 side chain carries C18DA-gGlu-gGlu-gGlu-gGlu-gGlu; C-terminal amide
B3: Compound 182 (peptide)
peptide: B1 peptide with E21A, Q24E, E33S, H39X
modifications: Aib at 2, 13, 20, 39; K28 side chain carries C20DA-gGlu-gGlu-gGlu-gGlu-gGlu-gGlu-eLys; C-terminal amide
B4: Compound 184 (peptide)
peptide: B1 peptide with E21A, Q24E, E33S, Y41X
modifications: Aib at 2, 13, 20, 41; K28 side chain carries C20DA-gGlu-gGlu-gGlu-gGlu-gGlu-gGlu-eLys; C-terminal amide
B5: Compound 186 (peptide)
peptide: B1 peptide with E21A, Q47X
modifications: Aib at 2, 13, 20; bHGln (beta-homo-L-glutamine) at 47; K28 side chain carries C20DA-gGlu-gGlu-gGlu-gGlu-gGlu-gGlu-eLys; C-terminal amide
B6: Compound 190 (peptide)
peptide: B1 peptide with E21A, Q24E, E33S, L44R
modifications: Aib at 2, 13, 20; D-Arg at 44; K28 side chain carries C20DA-gGlu-gGlu-gGlu-gGlu-Glu-gGlu-eLys (so in the source); C-terminal amide
B7: Compound 191 (peptide)
peptide: B1 peptide with E21A, Q24E, E33S, Y49X
modifications: Aib at 2, 13, 20; Tle at 49; K28 side chain carries C20DA-gGlu-gGlu-gGlu-gGlu-gGlu-gGlu-eLys; C-terminal amide

What was measured:
Test in all cases: cell-based or functional assay
NPY2 receptor = molecular target: T1, NPY2 receptor
GLP-1 receptor = GLP-1 receptor (human (printed as hGLP1R), UniProt P43220 24-463)
GIP receptor = molecular target: T2, GIP receptor

| Binder | EC50 hNPY2R 0.5% hP (CreLuc) (NPY2 receptor) [nM] | EC50 hNPY2R 100% hP (CreLuc) (NPY2 receptor) [nM] | EC50 hGLP1R 0.5% hP (CreLuc) (GLP-1 receptor) [nM] | EC50 hGLP1R 100% hP (CreLuc) (GLP-1 receptor) [nM] | EC50 hGIPR 0.5% hP (CreLuc) (GIP receptor) [nM] | EC50 hGIPR 100% hP (CreLuc) (GIP receptor) [nM] |
| --- | --- | --- | --- | --- | --- | --- |
| Y[Aib]EGTFTSDYSI[Aib]LEKQAQ[Aib]AFVQWLIK([AEEA-AEEA-γGlu-γGlu-γGlu-γGlu-C18 diacid])GGPSEPASLRHYYNWLTRQRY-NH2 (also: TFA salt) [Compound 173] | 12.4 | 24.9 | 0.11 | 3.07 | 0.27 | 0.94 |
| Y[Aib]EGTFTSDYSI[Aib]LEKQAE[Aib]AFVQWLIKGGPSEGASLRHYYNWLTRQRY-NH2 (not fully specified (residue 28); also: TFA salt) [Compound 174] | 11.5 | 39.2 | 0.22 | 7.71 | 0.17 | 1.26 |
| Y[Aib]EGTFTSDYSI[Aib]LEKQAQ[Aib]AFVEWLIK([AEEA-AEEA-γGlu-γGlu-γGlu-γGlu-C20 diacid])GGPSSPASLRHYYNWLTRQRY-NH2 (also: TFA salt) [Compound 175] | 10.5 | 48.7 | 0.1 | 5.3 | 0.29 | 1.53 |
| B1 | 30.4 | 197 | 0.29 | 9.56 | 0.68 | 3.37 |
| Y[Aib]EGTFTSDYSI[Aib]LEKQAQ[Aib]AFVQWLIK([AEEA-AEEA-Glu-Glu-Glu-Glu-C18 diacid])GGPEEGASLRHYYNWLTRQRY-NH2 (also: TFA salt) [Compound 177] | 18.7 | 115 | 0.16 | 12.5 | 0.28 | 2.83 |
| Y[Aib]EGTFTSDYSI[Aib]LEKQAQ[Aib]AFVEWLIKGGPSSPASLRHYYNWLTRQRY-NH2 (not fully specified (residue 28); also: TFA salt) [Compound 178] | 13.3 | 115 | 0.08 | 5.51 | 0.12 | 5.86 |
| Y[Aib]EGTFTSDYSI[Aib]LEKQAQ[Aib]EFVQWLIK([Glu-Glu-Glu-Glu-Glu-Glu-C18 diacid])GGPSEGASLRHYYNWLTRQRY-NH2 (also: TFA salt) [Compound 179] | 18.5 | 111 | 0.22 | 10.5 | 0.38 | 3.34 |
| B2 | 19.6 | 107 | 0.1 | 3.61 | 0.2 | 3.88 |
| Y[Aib]EGTFTSDYSI[Aib]LEEQAQ[Aib]AFVEWLIK([εLys-γGlu-γGlu-γGlu-γGlu-γGlu-C20 diacid])GGPSSGASLRHYYNWLTRQRY-NH2 (also: TFA salt) [Compound 181] | 16.5 | 102 | 0.14 | 3.23 | 0.16 | 1.23 |
| B3 | 70.4 | 256 | 0.13 | 2.73 | 0.21 | 1.39 |
| Y[Aib]EGTFTSDYSI[Aib]LEKQAQ[Aib]AFVEWLIKGGPSSYASLRHYYNWLTRQRY-NH2 (not fully specified (residue 28); also: TFA salt) [Compound 183] | 9.34 | 56.6 | 0.22 | 12.8 | 0.28 | 6.83 |
| B4 | 46 | 125 | 0.18 | 1.87 | 0.28 | 1.37 |
| Y[Aib]EGTFTSDYSI[Aib]LEKQAQ[Aib]EFVQWLIK([γGlu-γGlu-γGlu-γGlu-γGlu-γGlu-C20 diacid])GGPSEGASLRHYYNWLTRQRY-NH2 (also: TFA salt) [Compound 185] | 13.3 | 66.8 | 0.4 | 11 | 0.33 | 5.59 |
| B5 | > 99.9 | 904 | 0.11 | 1.25 | 0.11 | 0.77 |
| Y[Aib]EGTFTSDYSI[Aib]LEKQAQ[Aib]AFVQWLIK([AEEA-AEEA-Glu-Glu-Glu-C18 diacid])GGPEEGASLRHYYNWLTRQRY-NH2 (also: TFA salt) [Compound 188] | 16.9 | 105 | 0.15 | 5.93 | 0.12 | 1.16 |
| Y[Aib]EGTFTSDYSI[Aib]LEKQAQ[Aib]AFVQWLIK([εLys-γGlu-γGlu-γGlu-γGlu-γGlu-C20 diacid])GGPSEYASLRHYYNWLTRQRY-NH2 (also: TFA salt) [Compound 189] | 8.03 | 45.8 | 0.21 | 10.2 | 0.31 | 5.06 |
| B6 | > 100 | > 1000 | 0.1 | 1.09 | 0.13 | 1.18 |
| B7 | > 99.9 | > 999 | 0.17 | 2.92 | 0.23 | 2 |
| Y[Aib]EGTFTSDYSI[Aib]LEK(Ac)QAQ[Aib]AFVEWLIK([εLys-glu-γGlu-γGlu-γGlu-γGlu-γGlu-C20 diacid])GGPSSGASLRHYYNWLTRQRY-NH2 (reading uncertain; also: TFA salt) [Compound 192] | 20.5 | 128 | 0.13 | 2.01 | 0.28 | 1.95 |
| Y[Aib]EGTFTSDYSI[Aib]LEKQAQ[Aib]AFVQWLIK([AEEA-AEEA-γGlu-γGlu-γGlu-γGlu-C20 diacid])GGPEEGASLRHYYNWLTRQRY-NH2 (also: TFA salt) [Compound 193] | 13.6 | 73.3 | 0.36 | 20.8 | 0.5 | 3.4 |
